Experimental findings from patent US20240084004A1 (INTERVET, published 2024) are described below.

Positions count from the first letter of the chain named.

The target in assay [1] is T1, canine PD-1 expressed on CHO cells (canine).
T1 construct: CHO DXB11 cells transfected with plasmid p96793; also called cPD-1 CHO cells; CHO cell line expressing canine PD-1
T1 chain: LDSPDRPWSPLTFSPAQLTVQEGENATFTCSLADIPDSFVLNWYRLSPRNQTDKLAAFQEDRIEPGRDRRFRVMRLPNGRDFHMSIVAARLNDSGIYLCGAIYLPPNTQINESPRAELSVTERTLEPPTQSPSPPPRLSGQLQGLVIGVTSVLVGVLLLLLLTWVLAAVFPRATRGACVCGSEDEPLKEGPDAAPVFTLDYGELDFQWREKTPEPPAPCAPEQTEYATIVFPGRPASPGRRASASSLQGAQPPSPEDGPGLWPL
The experiment in a line: CELISA on CHO cells expressing canine PD-1, mAb diluted from 30 ug/mL (x axis: log of dilution), HRP goat anti-mouse, TMB.

Assay [2] concerns the target T2, HIS-tagged extracellular domain of canine PD-1.
T2 construct: also called canine PD-1 ECD-8HIS; PD-1ECD-HIS
T2 chain: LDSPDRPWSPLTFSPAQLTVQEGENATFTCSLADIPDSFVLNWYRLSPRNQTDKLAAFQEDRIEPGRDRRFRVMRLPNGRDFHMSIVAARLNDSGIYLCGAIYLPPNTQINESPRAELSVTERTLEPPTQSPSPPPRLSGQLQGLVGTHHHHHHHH
The experiment in a line: ELISA on plate-coated HIS-tagged canine PD-1 ECD, two-fold dilutions of mAb, HRP goat anti-mouse IgG, TMB. Here is the method: Purified anti-canine PD-1 mAbs were tested for reactivity with the HIS-tagged ECD domain of canine PD-1 by ELISA as follows: HIS-tagged canine PD-1 ECD protein is diluted to 10 μg/mL in coating buffer (Carbonate/Bicarbonate pH 9.0) and dispensed at 100 μl/well in 96-well flat bottomed ELISA plates (NUNC). The plates are incubated at 4° C. overnight. The plates are then washed three times with phosphate buffered saline containing 0.05% Tween-20 (PBST). Next, 200 μl of blocking buffer (5% skim milk in PBST) is added to each well and the plates are incubated at 37° C. for 60 minutes. The plates are then washed three times with PBST. Next, 100 μl of test mAbs diluted in blocking buffer is added to the first wells of the appropriate columns. Test mAbs are then diluted two-fold to the appropriate plate position. Following incubation of the plates at 37° C. for 60 minutes, the plates are washed three times with PBST. Next, 100 μl per well of a 1:2,000 dilution of a horseradish peroxidase conjugated goat anti-mouse IgG (KPL) is added to the plates, which are then incubated at 37° C. for 60 minutes. Then the plates are washed three times with PBST, and 100 μl/well of 3,3′,5,5′ tetramethyl benzidine, (TMB) substrate (from KPL) is added to the plates. The color reaction is allowed to develop for 5-20 minutes at 37° C. prior to measuring absorbance at 650 nm.
For orientation: ELISA stands for enzyme-linked immunosorbent assay.

Assay [3] addresses T1, canine PD-1 expressed on CHO cells. Put plainly: ligand blockade CELISA: mAb diluted from 30 ug/mL on CHO cells expressing canine PD-1, then cPD-L1-Fc-biotin, streptavidin-HRP; the signal is bound PD-L1. Here is the method: (§1) A cell-based ELISA (CELISA) assay based on the CHO cell line expressing canine PD-1 was used for mouse mAbs which react with canine PD-1 (cPD-1). Ligand blockade was confirmed using this assay in conjunction with biotinylated cPD-L1/Fc protein. Briefly, seed cPD-1 CHO cells were placed in 96-well plates at 4×10⁴ cells per well and the cells were incubated at 37° C. for 18-24 hours till they are 95-100% confluent. The cell culture media was aspirated off, and the plates were washed 3× with PBS+0.05% Tween20 and 1×CHO media. Three-fold serial dilutions were made of anti-cPD1 mAbs in CHO media, starting at 30 μg/mL, and 50 μL/well of each antibody dilution were added down the plate. The incubation was performed at 37° C., 5% CO₂ with shaking for 30 min. 50 μL/well of cPD-L1-Fc-biotin (2 μg/ml in CHO media stock) was added and the incubation at 37° C., 5% CO₂ was continued with shaking for 45 min. The plates were washed 6 times with PBS+0.05% Tween 20. 100 ul/well of Streptavidin-HRP (1:2000) in CHO media was added followed by a incubation for 30-60 min at 37° C./5% CO₂. The plates were washed 5 times with PBS+0.05% Tween20 and then 100 μl/well of TMB color developing substrate was added. The color development was stopped by adding 50 μl/well of 1M phosphoric acid. The optical density (O.D.) at A450-A620 was measured using an ELISA plate reader.

Assay [4] shares this target. Put plainly: ligand blockade CELISA: mAb diluted from 54.8 µg/mL on CHO cells expressing canine PD-1, then cPD-L1-Fc-biotin, streptavidin-HRP; the signal is bound PD-L1. As for the experimental part: as §1
Assay [5] has the same target. The experiment in a line: ligand blockade CELISA: mAb diluted from 23.2 µg/mL on CHO cells expressing canine PD-1, then cPD-L1-Fc-biotin, streptavidin-HRP; the signal is bound PD-L1. Here is the method:
as §1

The target of assay [6] is T3, canine PD-1 antigen peptide GRDRRFRVM*RLPNGR (SEQ ID NO: 84) (canine).
T3 construct: The starred methionine has also been reported as a threonine
T3 peptide: GRDRRFRVMRLPNGR
Put plainly: ProImmune ProArray Ultra peptide microarray, fluorescent secondary antibody. As for the experimental part: This library of overlapping peptides was designed to cover the full length canine PD-1 protein. The determination of peptide-antibody binding was performed by attachment of antibody samples to the ProArray Ultra® peptide microarray, followed by incubation with a fluorescent-labelled secondary antibody. All peptides are synthesized separately, and then bound to the ProArray Ultra® slide surface alongside ProImmune® murine IgG controls. This optimized process ensures that peptides are presented on the array in such a manner as to closely mimic the properties of the corresponding protein region, circumventing the inherent physiochemical variation of the free peptides themselves and making a compatible, combined peptide and protein array platform. […] After several washing steps, the ProArray Ultra® arrays were dried and scanned using a high-resolution fluorescence microarray scanning system. After scanning the fluorescent labelled ProArray Ultra® slides, the scanner recorded an image which was evaluated using image analysis software—enabling interpretation and quantification of the levels of fluorescent intensities associated with each fluorescent spot on the scanned microarray slide. The results of this experiment indicated some of the canine PD-1 peptides were recognized by some of the mAbs evaluated.

B1: mAb 1B5 (mouse anti-canine PD-1 monoclonal antibody) (antibody, V domains shown)
VH: QIQLVQSGPELKKPGETVKISCKASGYTFTTYGMSWVKQAPGKGLKWMGWINIYSGIPTYADDFKGRFAFSLETSASTAYLQIDNLKNEDTATYFCARFDGPDYWGQGTTLTVSP
VL: DIVMTQSPSSLAMSVGQKVTMSCKSSQSLLNSVNQKNYLAWYQQKPGQSPKVLVYFASTRVSGVPDRFIGSGSGTDFTLTITSVQAEDLTTYLCQQYFSTPLTFGAGTKLEIK
notes: Mouse mAb; also called IBS
For B1, the binding result in assay [1] is listed as “binds”.

B2: 4D12 (antibody, V domains shown)
VH: B1 VH with I57M, A76V, D84N, P115S
VL: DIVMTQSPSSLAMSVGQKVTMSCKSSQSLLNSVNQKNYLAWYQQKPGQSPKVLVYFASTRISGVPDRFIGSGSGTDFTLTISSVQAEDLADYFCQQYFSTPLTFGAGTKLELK
notes: Mouse anti-canine PD-1 mAb; also called mAb 4D12; copies: 2 + 2
For the molecule B2, the binding result in assay [2] and in assay [3] was “binds” each time.

B3: Murine 3B6 (mouse anti-canine PD-1 monoclonal antibody) (antibody, V domains shown)
VH: B1 VH with P115S
VL: B1 VL with M13V, Q17R, T59A, T80A, T82S, L93F, I112L
notes: Mouse hybridoma mAb; also called mAb 3B6
Consider B3, for which the binding result in assay [2] and in assay [1] was “binds” each time.

B4: mAb 2G9 (mouse anti-canine PD-1 monoclonal antibody) (antibody, V domains shown)
VH: QAYLQQSGAELVRPGASVKISCKASGYTFTRYNMHWVKQTPRQGLEWIGTIYPGYGDTSYNQKFKGKATLTVDISSSTAYMQLTSLTSEDSAVYFCSREFADDYPIPPFDYWGQGTTLTVSS
VL: DVLMTQTPLSLPVSLGDQASISCRSSQNIVHSNGNTYLEWYLQKPGQSPKLLIYKVSNRFSGVPDRFSGSGSGTDFTLKISRVEAEDLGIYYCFQGSHVPYTFGGGTKLEIK
notes: Mouse hybridoma mAb
B4: the binding result in assay [4] and in assay [2] was “binds” each time.

B5: 5G5 (antibody, V domains shown)
VH: EVQLQQSVAELVRPGASVKLSCTVSGFNIKNTYMHWVKQRPEQGLEWIGRIDPANVNTKYAPKFQGKATITTDTSSNTAYMQLSSLTSEDTAIYYCVLIFYDYDGDIDVWGTGTKVTVSS
VL: DIQMNQSPSSLSASLGDTITITCHASQNINVWLSWYQQKPGNIPKLLIYKASNLHTGVPSRFSGSGSGTDFTLTISSLQPEDIATYYCQQGQSYPLTFGAGTKLELK
notes: Mouse anti-canine PD-1 mAb; also called mAb 5G5; copies: 2 + 2
B5: in assay [2], the binding result is given as “binds”.

B6: Murine 2H9 (mouse anti-canine PD-1 monoclonal antibody) (antibody, V domains shown)
VH: B5 VH with V24A, V37I, D52A, N57D, T72A, S85T, F100Y, K115T
VL: B5 VL with K39R, N53H, D70G, Y94W
notes: Mouse hybridoma mAb purified on Protein G; also called mAb 2H9
As for B6, the binding result in assay [2], in assay [5] and in assay [6] was “binds” in each case.
